In US20190322730A1 (NGM BIOPHARMACEUTICALS, published 2019):
Each block holds one binder with its values, some of them ahead of it.

Columns and labels:
[1] = biological target: T1, human complement component C3 (human, UniProt P01024 23-667; P01024 672-1663); test: SPR (Biacore), 37 C
T1 construct: also called human C3
Experimental: (§1) The binding affinities of exemplary anti-C3 antibodies to human C3 and cyno C3 were measured using a Biacore system (GE Healthcare LifeSciences). Briefly, anti-Fc antibody (Sigma-Aldrich) was immobilized on all four flow cells of a CM5 chip using amine coupling reagents (GE Healthcare LifeSciences). Antibodies were captured on flow cells 2, 3, and 4 using flow cell 1 as a reference. Concentrations ranging from 0.62-40 nM of human C3 or cyno C3 were injected at a flow rate of 50 μL/min at 37° C. Kinetic data were collected over time and fit using the simultaneous global fit equation to yield affinity constants (KD values) for each antibody.

[2] = biological target: T2, cynomolgus monkey complement component C3 (cynomolgus monkey, UniProt P01024 24-1663 (human entry)); test: SPR (Biacore), 37 C
T2 construct: In the hemolysis assays cyno serum was the source of C3; also called cyno C3
T2 sequence (P01024 other isoform, or with tags, fused parts or gaps): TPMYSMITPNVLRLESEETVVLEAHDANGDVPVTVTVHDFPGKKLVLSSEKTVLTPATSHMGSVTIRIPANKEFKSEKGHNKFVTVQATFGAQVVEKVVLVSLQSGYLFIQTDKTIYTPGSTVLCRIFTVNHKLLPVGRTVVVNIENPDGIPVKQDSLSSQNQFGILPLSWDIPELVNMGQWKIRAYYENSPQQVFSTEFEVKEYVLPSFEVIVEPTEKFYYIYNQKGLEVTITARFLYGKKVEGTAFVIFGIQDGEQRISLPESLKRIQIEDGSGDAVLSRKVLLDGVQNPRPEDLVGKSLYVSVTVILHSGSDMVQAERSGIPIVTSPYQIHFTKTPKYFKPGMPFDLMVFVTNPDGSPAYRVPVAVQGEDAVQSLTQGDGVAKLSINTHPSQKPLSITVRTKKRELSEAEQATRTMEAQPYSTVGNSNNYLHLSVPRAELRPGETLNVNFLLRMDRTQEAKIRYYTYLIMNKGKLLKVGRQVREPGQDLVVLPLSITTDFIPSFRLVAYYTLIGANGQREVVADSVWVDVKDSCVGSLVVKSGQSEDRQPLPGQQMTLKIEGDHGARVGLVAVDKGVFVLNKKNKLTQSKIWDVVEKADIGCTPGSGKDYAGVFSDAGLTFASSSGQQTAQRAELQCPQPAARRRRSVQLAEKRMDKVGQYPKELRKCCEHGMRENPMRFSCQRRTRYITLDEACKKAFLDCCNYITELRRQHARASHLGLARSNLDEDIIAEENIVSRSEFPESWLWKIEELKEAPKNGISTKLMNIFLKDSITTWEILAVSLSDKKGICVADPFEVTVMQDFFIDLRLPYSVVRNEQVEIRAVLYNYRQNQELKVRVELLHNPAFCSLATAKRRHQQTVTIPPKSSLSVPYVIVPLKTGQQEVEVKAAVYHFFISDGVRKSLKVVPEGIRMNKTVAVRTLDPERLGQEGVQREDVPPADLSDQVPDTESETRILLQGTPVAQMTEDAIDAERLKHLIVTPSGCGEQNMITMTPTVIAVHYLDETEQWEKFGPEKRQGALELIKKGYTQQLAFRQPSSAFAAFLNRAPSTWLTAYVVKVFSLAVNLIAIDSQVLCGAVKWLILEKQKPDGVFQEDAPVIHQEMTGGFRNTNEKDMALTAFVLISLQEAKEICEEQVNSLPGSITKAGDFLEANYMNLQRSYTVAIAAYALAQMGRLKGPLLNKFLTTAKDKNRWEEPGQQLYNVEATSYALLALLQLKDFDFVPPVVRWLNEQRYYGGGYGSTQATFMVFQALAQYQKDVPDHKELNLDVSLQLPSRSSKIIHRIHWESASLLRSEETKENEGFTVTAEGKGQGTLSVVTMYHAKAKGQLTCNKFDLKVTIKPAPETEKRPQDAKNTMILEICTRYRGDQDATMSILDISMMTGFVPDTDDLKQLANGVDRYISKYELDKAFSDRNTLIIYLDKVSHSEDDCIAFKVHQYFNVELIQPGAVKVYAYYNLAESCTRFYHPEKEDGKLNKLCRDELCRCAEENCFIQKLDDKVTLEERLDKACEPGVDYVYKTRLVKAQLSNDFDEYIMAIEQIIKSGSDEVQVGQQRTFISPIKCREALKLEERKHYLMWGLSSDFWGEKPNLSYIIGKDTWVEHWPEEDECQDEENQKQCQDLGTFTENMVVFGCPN
Experimental: as §1

[3] = biological target: T3, Factor Bb (UniProt P00751 260-764); test: binding screen of Example 5, relative to control mIgG2
T3 construct: domain: Factor Bb
T3 sequence (P00751 260-764 limits assumed): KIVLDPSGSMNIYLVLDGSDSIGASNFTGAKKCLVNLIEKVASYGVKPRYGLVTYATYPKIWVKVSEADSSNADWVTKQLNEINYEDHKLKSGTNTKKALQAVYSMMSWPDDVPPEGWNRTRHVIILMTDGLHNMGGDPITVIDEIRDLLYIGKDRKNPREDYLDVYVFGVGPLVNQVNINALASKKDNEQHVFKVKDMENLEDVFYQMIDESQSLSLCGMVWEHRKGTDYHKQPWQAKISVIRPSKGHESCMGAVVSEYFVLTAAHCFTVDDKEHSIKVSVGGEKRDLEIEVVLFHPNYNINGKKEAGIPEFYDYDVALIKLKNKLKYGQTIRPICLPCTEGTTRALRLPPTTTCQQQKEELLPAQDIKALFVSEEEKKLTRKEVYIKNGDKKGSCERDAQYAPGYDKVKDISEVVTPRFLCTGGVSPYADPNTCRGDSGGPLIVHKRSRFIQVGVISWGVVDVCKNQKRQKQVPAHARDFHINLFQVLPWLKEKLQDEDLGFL

[4] = biological target: T4, C3a (human, UniProt P01024 672-748); test: as above
T4 sequence (P01024 672-748 limits assumed): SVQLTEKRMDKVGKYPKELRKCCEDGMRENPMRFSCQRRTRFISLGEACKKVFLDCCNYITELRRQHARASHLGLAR

[5] = biological target: T5, C3d (UniProt P01024 1002-1303, limits assumed); test: as above
T5 construct: domain: C3d
T5 sequence (P01024 1002-1303 limits assumed): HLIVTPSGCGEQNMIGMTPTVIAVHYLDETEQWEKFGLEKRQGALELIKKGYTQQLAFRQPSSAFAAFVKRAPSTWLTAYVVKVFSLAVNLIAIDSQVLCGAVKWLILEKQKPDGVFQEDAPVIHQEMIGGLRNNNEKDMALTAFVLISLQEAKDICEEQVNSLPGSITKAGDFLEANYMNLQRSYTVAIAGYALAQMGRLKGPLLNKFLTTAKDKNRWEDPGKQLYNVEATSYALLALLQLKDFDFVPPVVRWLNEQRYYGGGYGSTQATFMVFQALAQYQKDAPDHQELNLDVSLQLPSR

[6] = biological target: T1, human complement component C3; test: SPR (Biacore), antibody captured by anti-Fc, C3 injected 0.62-40 nM, 37 C
Experimental: as §1

[7] = biological target: T2, cynomolgus monkey complement component …; test: as above
Experimental: as §1

[8] = biological target: T1, human complement component C3; test: cell-based or functional assay
[9] = biological target: T2, cynomolgus monkey complement component …; test: cell-based or functional assay
[10] = biological target: T1, human complement component C3; test: binding screen of Example 5; method and unit not stated
[11] = biological target: T3, Factor Bb; test: as above
[12] = biological target: T4, C3a; test: as above
[13] = biological target: T5, C3d; test: as above
[14] = biological target: T1, human complement component C3; test: cell-based or functional assay; remark: listed apart in the source
[15] = biological target: T1, human complement component C3; test: cell-based or functional assay; remark: listed apart in the source
[16] = biological target: T2, cynomolgus monkey complement component …; test: cell-based or functional assay; remark: listed apart in the source
[17] = biological target: T1, human complement component C3; test: SPR (Biacore), antibody captured by anti-Fc, C3 injected, 37 C
Experimental: as §1
(§2) A Biacore system was used to assess the binding affinities of the different molecules to human C3. […] Human C3 (concentration range 12-100 nM) was injected at a flow rate of 50 μL/min.

[18] = biological target: T1, human complement component C3; test: SPR (Biacore); Intact antibody
[19] = biological target: T1, human complement component C3; test: cell-based or functional assay; remark: listed apart in the source
[20] = biological target: T1, human complement component C3; test: cell-based or functional assay; remark: listed apart in the source
[21] = biological target: T1, human complement component C3; test: SPR (Biacore)
Experimental: as §1

[22] = biological target: T1, human complement component C3; test: SPR (Biacore), antibody captured by anti-Fc, C3 injected, 25 C; 25° C.
Experimental: as §1, §2

[23] = biological target: T1, human complement component C3; test: SPR (Biacore); remark: listed apart in the source
[24] = biological target: C3b (human, UniProt P01024 23-667; P01024 749-1663); test: binding screen of Example 5; method and unit not stated

T1 sequence (P01024 23-667, chain 1 of 2): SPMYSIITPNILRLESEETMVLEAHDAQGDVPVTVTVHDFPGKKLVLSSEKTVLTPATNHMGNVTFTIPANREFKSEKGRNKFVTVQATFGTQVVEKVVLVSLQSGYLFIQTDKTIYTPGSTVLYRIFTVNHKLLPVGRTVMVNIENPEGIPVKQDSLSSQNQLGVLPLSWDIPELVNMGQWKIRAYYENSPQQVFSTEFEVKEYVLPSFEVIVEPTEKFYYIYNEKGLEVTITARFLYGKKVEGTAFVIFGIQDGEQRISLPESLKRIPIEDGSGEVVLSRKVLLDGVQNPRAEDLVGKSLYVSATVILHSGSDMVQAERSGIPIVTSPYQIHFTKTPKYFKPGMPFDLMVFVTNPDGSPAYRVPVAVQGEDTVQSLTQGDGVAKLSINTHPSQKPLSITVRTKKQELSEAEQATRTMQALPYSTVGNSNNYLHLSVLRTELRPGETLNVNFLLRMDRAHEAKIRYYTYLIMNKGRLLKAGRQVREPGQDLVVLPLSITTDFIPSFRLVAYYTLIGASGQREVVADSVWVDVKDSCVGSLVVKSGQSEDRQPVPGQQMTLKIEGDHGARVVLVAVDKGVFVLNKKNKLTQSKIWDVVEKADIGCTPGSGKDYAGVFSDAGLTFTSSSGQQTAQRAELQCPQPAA
T1 sequence (P01024 672-1663, chain 2 of 2): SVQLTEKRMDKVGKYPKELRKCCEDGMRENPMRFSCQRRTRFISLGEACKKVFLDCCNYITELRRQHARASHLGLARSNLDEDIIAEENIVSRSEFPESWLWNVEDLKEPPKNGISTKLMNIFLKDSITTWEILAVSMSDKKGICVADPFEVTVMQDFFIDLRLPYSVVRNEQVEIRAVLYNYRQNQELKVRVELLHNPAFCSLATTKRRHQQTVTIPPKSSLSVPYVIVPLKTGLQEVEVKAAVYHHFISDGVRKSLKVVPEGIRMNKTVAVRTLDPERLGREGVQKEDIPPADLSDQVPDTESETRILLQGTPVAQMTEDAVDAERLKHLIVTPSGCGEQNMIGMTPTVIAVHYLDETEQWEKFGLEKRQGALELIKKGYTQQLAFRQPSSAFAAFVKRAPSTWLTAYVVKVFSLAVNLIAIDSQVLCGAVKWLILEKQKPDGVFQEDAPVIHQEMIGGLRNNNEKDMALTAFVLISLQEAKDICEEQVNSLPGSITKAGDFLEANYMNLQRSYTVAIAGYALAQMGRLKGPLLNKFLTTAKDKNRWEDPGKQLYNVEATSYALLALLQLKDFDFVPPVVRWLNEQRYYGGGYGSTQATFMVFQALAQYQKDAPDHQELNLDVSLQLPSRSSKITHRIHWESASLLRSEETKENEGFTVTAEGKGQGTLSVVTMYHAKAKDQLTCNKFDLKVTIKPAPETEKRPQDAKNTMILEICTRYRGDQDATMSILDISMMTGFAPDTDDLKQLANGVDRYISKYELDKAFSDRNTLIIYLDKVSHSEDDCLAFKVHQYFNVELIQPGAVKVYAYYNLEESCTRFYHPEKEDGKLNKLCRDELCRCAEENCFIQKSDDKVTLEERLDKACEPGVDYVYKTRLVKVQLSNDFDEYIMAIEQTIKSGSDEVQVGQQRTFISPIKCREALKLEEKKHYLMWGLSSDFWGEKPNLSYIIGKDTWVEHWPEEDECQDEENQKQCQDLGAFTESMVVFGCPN

B1: antibody 38G10 (antibody, V domains shown)
VH: EVQLQQSGPELVKPGDSVKMSCKASGYTFTDFYMDWVKQSHGKSLEWIGYIYPHNGGTTYNQNFTGKATLTVDKSSNTAYMELHSLTSEDSAVYYCARRGGFDFDYWGQGTTLTVSS
VL: NIVMTQSPKSMSLSVGERVTLRCKASENVDTYVSWYQQKPEQSPKLLIYGASNRYTGVPDRFTGSGSATEFTLTISSVQAEDLVGYHCGQSHSYPLTFGAGTKLELK
notes: Mouse hybridoma antibody; Parent of Hz38G10; also called parental 38G10 antibody
Kd [1]: ~0.1 nM | Kd [2]: ~0.1 nM | binding result [3]: no binding | binding result [4]: no binding | binding result [5]: no binding | Kd [6]: 0.19 nM | Kd [7]: 0.16 nM | Hemolytic Assay IC50, Human AP [8]: 1.9 nM | Hemolytic Assay IC50, Human CP [8]: 1.7 nM | Hemolytic Assay IC50, Cyno AP [9]: 3.5 nM | binding relative to negative control mIgG2 [10]: 0.53 | binding relative to negative control mIgG2 [11]: 0.01 | binding relative to negative control mIgG2 [12]: 0.02 | binding relative to negative control mIgG2 [13]: 0

B3: Hz38G10 dsscFv (scFv)
scFv: MDIQMTQSPSSLSASVGDRVTITCKASENVDTYVSWYQQKPGKAPKLLIYGASNRYTGVPSRFSGSGSGTDFTFTISSLQPEDIATYHCGQSHSYPLTFGCGTKLEIKGGGGSGGGGSGGGGSQVQLVQSGAEVKKPGASVKVSCKASGYTFTDFYMDWVRQAPGQCLEWMGYIYPHNGGTTYNQQFTGRVTITVDKSASTAYMELSSLRSEDTAVYYCARRGGFDFDYWGQGTLVTVSS
notes: also called Hz38G10 VL-linker-VH dsscFv
Kd [23]: 0.035 nM | AP human C3 IC50 (hemolysis) [20]: 19.5 nM | CP human C3 IC50 (hemolysis) [20]: 15.3 nM

B4: antibody 15C12 (antibody, V domains shown)
VH: EIQLQQSGAELEKPGASVKISCKASGYSFTGYNMHWVKQSHGKSLEWIGNINPYYGTTNSNQKFEDKATLTVDKSSSTAYMQLNSLTSEDSAVYYCARGIYYYGTGYPYFDFWGQGTTLTVSS
VL: DIQMTQTTSSLSASLGDRVTISCRASQDINNYLNWYLQKPDGTVKLLIYYTSRLHSGVPSRFSGSGSGTDYSLTISNLEQEDLATYFCQQGITLPWTFGGGTKLEIK
notes: Mouse hybridoma antibody
Kd [6]: 0.13 nM | Kd [7]: 0.13 nM | Hemolytic Assay IC50, Human AP [8]: 3.7 nM | Hemolytic Assay IC50, Human CP [8]: 3.8 nM | Hemolytic Assay IC50, Cyno AP [9]: 8.8 nM

Continued, in another order:

Kd [2]: 1.8 nM | Kd [17]: 0.28 nM | Kd [18]: 0.027 nM | fold more effective than COMP or COMP-PEG in inhibiting the alternative pathway [19]: ~10 fold | Kd [21]: 0.3 nM | Kd [22]: < 0.1 nM
B2: antibody Hz38G10 (antibody, human IgG1, kappa, V domains shown)
VH: QVQLVQSGAEVKKPGASVKVSCKASGYTFTDFYMDWVRQAPGQRLEWMGYIYPHNGGTTYNQQFTGRVTITVDKSASTAYMELSSLRSEDTAVYYCARRGGFDFDYWGQGTLVTVSS
VL: DIQMTQSPSSLSASVGDRVTITCKASENVDTYVSWYQQKPGKAPKLLIYGASNRYTGVPSRFSGSGSGTDFTFTISSLQPEDIATYHCGQSHSYPLTFGQGTKLEIKR
notes: also called humanized 38G10; Hz38G10 intact antibody
Alternative Pathway IC50 (hemolysis; run with COMP) [14]: 2.5 nM | Alternative Pathway IC50 (hemolysis; run with COMP-PEG) [14]: 4 nM | Classical Pathway IC50 (hemolysis; run with COMP) [14]: 2 nM | Classical Pathway IC50 (hemolysis; run with COMP-PEG) [14]: 4.1 nM | Alternative Pathway IC50 (hemolysis), Human C3 [15]: 3.9 nM | Classical Pathway IC50 (hemolysis), Human C3 [15]: 5.2 nM | Alternative Pathway IC50 (hemolysis), Cyno C3 [16]: 4.8 nM | Classical Pathway IC50 (hemolysis), Cyno C3 [16]: 0.7 nM | AP human C3 IC50 (hemolysis) [20]: 5.9 nM | CP human C3 IC50 (hemolysis) [20]: 4 nM

Kd [6]: 1.9 nM | Kd [7]: 1.4 nM | binding relative to negative control mIgG2 [10]: 0.47 | binding relative to negative control mIgG2 [11]: -0.01 | binding relative to negative control mIgG2 [12]: -0.01 | binding relative to negative control mIgG2 [13]: 0.01 | binding relative to negative control mIgG2 [24]: 0.38
B5: antibody 3D8 (antibody, V domains shown)
VH: EIQLQQSGAELVKPGASVKISCKASGYSFTGYNMNWVKQSHGKSLEWIGNINPYYGSTNYNQKFKGKATLTVDKSSTTAYMQLDSLTSEDSAVYYCARGYYGGNYPFAYWGQGTLVTVSA
VL: DIQMTQSPASLSASVGETVTITCRASENIYSYLAWYQQKQGKSPQLLVYNAKTLAEGVPSRFSGSGSGTQFSLKINSLQPEDFGSYYCQHYYGTPYTFGGGSKVEIK
notes: Mouse hybridoma antibody raised against human C3
Hemolytic Assay IC50, Human AP [8]: 4.2 nM | Hemolytic Assay IC50, Human CP [8]: 3.6 nM | Hemolytic Assay IC50, Cyno AP [9]: 5.5 nM
